From PMC4166039
Like-named read-outs stand apart in the source and are kept apart here.

Assays:
Experiment in all cases: cross-linking
[1] = target: hamster IgG1 anti-CD3E antibody (145-2C11) (hamster)
[2] = target: rat IgG2c isotype control antibody (rat) (UniProt P20762)
mouse IgG3 (mouse) = target: mouse IgG3 (mouse)
[3] = target: rat IgG2b anti-ICAM1 antibody (YN-1) (rat) (UniProt P20761)
[4] = target: mouse IgG2b isotype control antibody (mouse) (UniProt P01867)
mouse IgG2a (mouse) = target: mouse IgG2a (mouse)
[5] = target: human IgG2 isotype control antibody (human) [IgG part: P01859]
[6] = target: mouse IgG1 (mouse) [IgG part: P01868]
[7] = target: rat IgG1 isotype control antibody (rat)
[8] = target: human IgG1 (human) [IgG part: P01857]
[9] = target: mouse IgG1 (mouse) [IgG part: P01868]; remark: listed apart in the source
[10] = target: human IgG4 isotype control antibody (human) [IgG part: P01861]
[11] = target: human IgG1 (human) [IgG part: P01857]; remark: listed apart in the source

Sequence of UniProt P20761 (P20761 whole entry, looked up): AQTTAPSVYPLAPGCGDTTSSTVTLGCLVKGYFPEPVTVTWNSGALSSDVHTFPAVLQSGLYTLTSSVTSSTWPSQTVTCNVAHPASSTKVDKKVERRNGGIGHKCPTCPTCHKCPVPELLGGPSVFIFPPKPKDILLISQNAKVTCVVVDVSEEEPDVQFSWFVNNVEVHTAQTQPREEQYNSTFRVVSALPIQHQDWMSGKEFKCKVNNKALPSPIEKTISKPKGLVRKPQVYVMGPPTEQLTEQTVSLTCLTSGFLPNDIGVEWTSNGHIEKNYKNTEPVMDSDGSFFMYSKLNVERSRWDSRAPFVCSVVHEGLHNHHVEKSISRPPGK
Sequence of UniProt P20762 (P20762 whole entry, looked up): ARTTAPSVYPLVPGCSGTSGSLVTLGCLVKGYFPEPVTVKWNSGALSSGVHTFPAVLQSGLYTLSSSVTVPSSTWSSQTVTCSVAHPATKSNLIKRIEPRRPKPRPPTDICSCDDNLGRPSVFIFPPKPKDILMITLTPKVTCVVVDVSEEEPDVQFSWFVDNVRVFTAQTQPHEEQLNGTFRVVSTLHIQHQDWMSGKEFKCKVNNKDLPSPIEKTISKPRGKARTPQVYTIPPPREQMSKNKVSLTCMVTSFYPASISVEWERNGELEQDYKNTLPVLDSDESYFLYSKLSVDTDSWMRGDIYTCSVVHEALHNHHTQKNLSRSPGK

“Protein Z K35BPA variant with the background F5I mutation (designed binder)” showed a percent of heavy chains cross-linked (1 h UV) [1] of 37%.

For “Protein Z L17BPA variant (designed binder)”, the percent of heavy chains cross-linked (1 h UV) [2] was 60%, the percent of heavy chains cross-linked (15 min UV) (mouse IgG3 (mouse)) was > 70% and the percent of heavy chains cross-linked (1 h UV) (mouse IgG3 (mouse)) was 80%. The percent of heavy chains cross-linked (2 h UV) (mouse IgG3 (mouse)) was 90%, the percent of intact IgG cross-linked (15 min UV) (mouse IgG3 (mouse)) was 90% and the percent of intact IgG cross-linked (1 h UV) (mouse IgG3 (mouse)) was > 95%. The percent of intact IgG cross-linked (2 h UV) (mouse IgG3 (mouse)) was > 96%, the percent of heavy chains cross-linked (1 h UV) [3] was 20% and the percent of heavy chains cross-linked (1 h UV) [4] was 71%. The percent of heavy chains cross-linked (1 h UV) (mouse IgG2a (mouse)) was 60%.

With “Protein Z Q32BPA variant (designed binder)” the percent of heavy chains cross-linked (1 h UV) [5] was 12%, the percent of heavy chains cross-linked (1 h UV) [6] was 50% and the percent of heavy chains cross-linked (2 h UV) [6] was > 55%. For the same substance, the percent of intact IgG cross-linked (1 h UV) [6] was 60%, the percent of intact IgG cross-linked (2 h UV) [6] was > 70% and the percent of heavy chains cross-linked (1 h UV) [1] was 20%. For the same substance, the percent of heavy chains cross-linked (1 h UV) [7] was 10%, the percent of heavy chains cross-linked (1 h UV) [8] was 37% and the percent of heavy chains cross-linked (1 h UV) [9] was 50%.

Substance “Protein Z K35BPA variant (designed binder)” has a percent of heavy chains cross-linked (1 h UV) [5] of 17%, a percent of heavy chains cross-linked (1 h UV) [1] of 30% and a percent of heavy chains cross-linked (1 h UV) [8] of 47%. For the same substance, the percent of heavy chains cross-linked (2 h UV) [8] was > 55%, the percent of intact IgG cross-linked (1 h UV) [8] was 60% and the percent of intact IgG cross-linked (2 h UV) [8] was > 70%. It also gave a percent of heavy chains cross-linked (1 h UV) [10] of 50% and a percent of heavy chains cross-linked (1 h UV) [11] of 50%.
